Experimental data published in US20260226503A1.

What was measured:
[1] = molecular target: AAV2 capsid (adeno-associated virus serotype 2) (UniProt P03135); assay: bind-and-elute chromatography, pure AAV2; bound at pH 7.0, eluted with 0.2 M MgCl2 in citrate pH 2.2; ELISA
[2] = molecular target: AAV9 capsid (adeno-associated virus serotype 9); assay: bind-and-elute chromatography, pure AAV9; bound at pH 7.0, eluted with 0.2 M MgCl2 in citrate pH 2.2; ELISA
[3] = molecular target: AAV2 capsid (adeno-associated virus serotype 2) (UniProt P03135); assay: bind-and-elute chromatography, pure AAV2; bound at pH 7.0, eluted with PBS pH 2.0; ELISA
[4] = molecular target: AAV9 capsid (adeno-associated virus serotype 9); assay: bind-and-elute chromatography, pure AAV9; bound at pH 7.0, eluted with PBS pH 2.0; ELISA

Chain of AAV2 capsid (adeno-associated virus serotype 2) (P03135 whole entry, chain 1 of 3): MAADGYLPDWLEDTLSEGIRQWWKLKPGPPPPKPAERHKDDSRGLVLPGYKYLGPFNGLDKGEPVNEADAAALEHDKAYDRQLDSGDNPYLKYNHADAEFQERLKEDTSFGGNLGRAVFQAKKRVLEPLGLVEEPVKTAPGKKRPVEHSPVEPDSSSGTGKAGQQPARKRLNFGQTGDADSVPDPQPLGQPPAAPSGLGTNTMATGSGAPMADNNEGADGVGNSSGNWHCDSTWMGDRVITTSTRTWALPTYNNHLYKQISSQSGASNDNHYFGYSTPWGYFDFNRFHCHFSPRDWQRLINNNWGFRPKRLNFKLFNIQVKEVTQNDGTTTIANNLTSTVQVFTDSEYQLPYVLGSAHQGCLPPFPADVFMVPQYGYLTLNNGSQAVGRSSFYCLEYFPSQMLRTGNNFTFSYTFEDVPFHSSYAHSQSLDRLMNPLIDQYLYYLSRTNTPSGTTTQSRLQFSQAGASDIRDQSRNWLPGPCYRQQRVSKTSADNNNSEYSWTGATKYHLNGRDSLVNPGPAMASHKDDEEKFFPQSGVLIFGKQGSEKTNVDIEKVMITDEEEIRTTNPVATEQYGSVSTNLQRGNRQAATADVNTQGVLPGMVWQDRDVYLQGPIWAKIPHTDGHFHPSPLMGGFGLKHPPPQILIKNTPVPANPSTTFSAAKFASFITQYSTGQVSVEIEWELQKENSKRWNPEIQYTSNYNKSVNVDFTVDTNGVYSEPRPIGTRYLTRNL
Chain of AAV2 capsid (adeno-associated virus serotype 2) (P03135 139-735, tags left off, chain 2 of 3): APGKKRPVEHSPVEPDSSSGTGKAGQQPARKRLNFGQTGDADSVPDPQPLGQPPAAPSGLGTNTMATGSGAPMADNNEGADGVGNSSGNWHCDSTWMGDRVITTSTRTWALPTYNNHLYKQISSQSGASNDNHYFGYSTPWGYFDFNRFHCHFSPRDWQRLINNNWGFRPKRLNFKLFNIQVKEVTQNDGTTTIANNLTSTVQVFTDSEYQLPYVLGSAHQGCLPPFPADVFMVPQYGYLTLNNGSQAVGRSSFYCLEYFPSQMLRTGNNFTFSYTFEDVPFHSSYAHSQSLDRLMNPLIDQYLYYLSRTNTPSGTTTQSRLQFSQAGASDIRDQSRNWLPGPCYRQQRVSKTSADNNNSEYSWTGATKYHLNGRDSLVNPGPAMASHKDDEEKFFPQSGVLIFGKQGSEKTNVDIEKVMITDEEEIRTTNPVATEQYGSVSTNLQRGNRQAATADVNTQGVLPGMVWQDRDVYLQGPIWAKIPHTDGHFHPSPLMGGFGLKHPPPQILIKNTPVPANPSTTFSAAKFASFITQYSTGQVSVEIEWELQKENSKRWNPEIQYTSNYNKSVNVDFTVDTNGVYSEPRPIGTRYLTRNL
Chain of AAV2 capsid (adeno-associated virus serotype 2) (P03135 203-735, chain 3 of 3): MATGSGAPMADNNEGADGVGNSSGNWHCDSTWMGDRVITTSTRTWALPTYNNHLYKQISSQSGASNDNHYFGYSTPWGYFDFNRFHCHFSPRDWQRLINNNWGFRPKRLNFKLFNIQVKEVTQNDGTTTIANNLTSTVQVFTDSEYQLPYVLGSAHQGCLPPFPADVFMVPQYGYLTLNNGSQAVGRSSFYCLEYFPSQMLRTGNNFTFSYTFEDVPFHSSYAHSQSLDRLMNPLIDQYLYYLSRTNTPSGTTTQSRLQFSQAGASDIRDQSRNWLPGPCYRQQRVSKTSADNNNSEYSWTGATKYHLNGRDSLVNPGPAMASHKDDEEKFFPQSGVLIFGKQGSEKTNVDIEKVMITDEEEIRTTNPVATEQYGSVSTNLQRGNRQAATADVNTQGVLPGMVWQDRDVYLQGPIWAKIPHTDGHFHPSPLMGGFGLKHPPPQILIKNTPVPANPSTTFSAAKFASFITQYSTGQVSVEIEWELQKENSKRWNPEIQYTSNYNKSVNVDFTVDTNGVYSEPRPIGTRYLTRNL

Substance | yield (AAV titer in elution fraction vs. load) [1] [%] | yield (AAV titer in elution fraction vs. load) [2] [%] | yield (AAV titer in elution fraction vs. load) [3] [%] | yield (AAV titer in elution fraction vs. load) [4] [%]
POROS CaptureSelect AAVX Affinity resin (VHH) | 63.4 | 25.6 |  | 
AVB Sepharose HP resin (VHH) |  |  | 45.8 | 10.6
